Experimental data: patent US20060084085A1, “Methods and compositions for modulating Bax-mediated apoptosis” (priority 2004, published 2006)

Columns and labels:
[1] = biological target: T1, PCAF (Homo sapiens, UniProt Q92831); experiment: In vitro acetylation assay of Ku70 peptides with PCAF HAT domain and 3H-acetyl-CoA; type: biochemical; set-up: key to Relative Intensity of Acetylation: +: Band intensity was measured using NIH ImageJ software and normalized to the intensity of peptide 3.; ++: Band intensity was measured using NIH ImageJ software and normalized to the intensity of peptide 3.; +++: Band intensity was measured using NIH ImageJ software and normalized to the intensity of peptide 3.; +++++: Band intensity was measured using NIH ImageJ software and normalized to the intensity of peptide 3; settings: for acetylation of peptide by PCAF in vitro: HAT domain of PCAF, 3H-acetyl-CoA, autoradiography; for Relative Intensity of Acetylation: Ku70 peptides acetylated by PCAF in vitro, band intensity normalized to peptide 3
T1 construct: 100 ng of recombinant HAT domains of p300, PCAF, or CBP
T1 sequence (Q92831 503-651 limits assumed): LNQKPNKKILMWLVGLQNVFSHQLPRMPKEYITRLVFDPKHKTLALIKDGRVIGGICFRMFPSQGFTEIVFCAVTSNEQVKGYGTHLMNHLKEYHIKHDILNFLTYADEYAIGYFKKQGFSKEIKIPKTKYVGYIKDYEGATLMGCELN
Description: FIG. 2B is a schematic representation of the synthetic peptide library spanning the entire length of Ku70. Each peptide was incubated with PCAF and 3H-acetyl-CoA and analyzed as in FIG. 2A.
(§1) FIG. 2C is a series of photographs showing acetylation peptides 16 and 29 as resolved by SDS-PAGE (PCAF reaction, left panel; CBP reaction, right panel). The acetylated domain of p53 (aa 315-325) served as a positive control for acetylation.
(§2) FIG. 2D is a photograph showing acetylation results of a series of scanning synthetic peptides of peptide 29. These scanning synthetic peptides were synthesized, with three out of the four lysines (K) substituted for arginine (R), a residue that cannot be acetylated. Peptides were incubated in acetylation reactions with PCAF or CBP and resolved by SDS-PAGE as above.
(§3) Due to the strong interaction between Ku70 and CBP and the efficient acetylation of Ku70 in vitro, we sought to define the regions of Ku70 that are targeted for acetylation. A library of 31 peptides was synthesized to cover the entire Ku70 sequence (FIG. 2B). Each of these peptides was incubated in an acetylation reaction as above, with either the HAT domain of PCAF or CBP. Again, a p53 peptide served as a positive control. […] Peptide 29 ([…]541-562), which contains four lysines (K542, K544, K553, and K556), is located within the C-terminal flexible linker region that we had previously identified as a potential target for acetylation (see FIG. 1 B).
(§4) To determine which lysines in peptide 29 were being acetylated in the reaction, a series of substitutions were made in which three out of the four lysines were replaced with arginine, a residue that cannot be acetylated. Each peptide was then incubated with either PCAF or CBP and analyzed by autoradiography as above.
(§5) Protein acetyltransferase assays were performed in 30 μl of reaction buffer containing 50 mM HEPES (pH 8.0), 10% glycerol, 1 mM DTT, 1 mM PMSF, 10 mM Na-butyrate, 1 μL (3H]-acetyl-CoA, 1 μg recombinant Ku70/80 complex or Ku70 peptide, and 100 ng of recombinant HAT domains of p300, PCAF, or CBP. Reactions were incubated at 30° C. for 1 hr and separated by SDS-PAGE (10%), stained with Coomassie blue, treated with EN^3HANCE autoradiography enhancer (NEN), dried, and exposed to film for 3-7 days. p53 peptides used as positive controls were p53315-3235 and p53377-389.

[2] = biological target: T2, CBP (Homo sapiens, UniProt Q92793); experiment: In vitro acetylation assay of Ku70 peptides with CBP HAT domain and 3H-acetyl-CoA; type: biochemical; settings: autoradiography
T2 construct: 100 ng of recombinant HAT domains of p300, PCAF, or CBP
T2 sequence (Q92793 1323-1700 limits assumed): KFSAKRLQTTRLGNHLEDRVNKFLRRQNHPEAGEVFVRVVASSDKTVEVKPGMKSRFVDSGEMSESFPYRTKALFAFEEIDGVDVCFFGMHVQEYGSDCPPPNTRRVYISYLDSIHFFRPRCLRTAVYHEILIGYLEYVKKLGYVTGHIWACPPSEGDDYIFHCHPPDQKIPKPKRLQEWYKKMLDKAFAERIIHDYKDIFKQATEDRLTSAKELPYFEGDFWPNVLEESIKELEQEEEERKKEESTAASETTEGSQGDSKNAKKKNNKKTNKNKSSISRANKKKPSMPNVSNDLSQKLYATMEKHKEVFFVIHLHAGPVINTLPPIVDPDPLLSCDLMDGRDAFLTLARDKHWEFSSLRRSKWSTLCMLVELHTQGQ
Source text: as §1, §2, §3, §4, §5

[3] = test system: 293T cells; experiment: Bax-mediated apoptosis in 293T cells transfected with YFP-Bax and Ku70 (apoptotic nuclei scored); type: cell-based, human; settings: for effect on the ability of Ku70 to suppress Bax-mediated apoptosis: 293T cells cotransfected with YFP-Bax and Ku70, apoptotic nuclei scored 24 hr posttransfection
Description: 293T cells were cotransfected with YFP (Yellow Fluorescent Protein)-Bax and pcDNA-Ku70 in the presence or absence of TSA/NAM. The percentage of cells with apoptotic nuclei were scored 24 hr posttransfection.
(A) 293T cells were transfected with YFP (1 μg) or YFP-Bax (1 μg) and Ku70 (2 μg). Twleve hrs after the transfection, the medium was supplemented with resveratrol (0, 50 or 100 nM) and the percentage of YFP positive cells with apoptotic nuclei were scored 24 hrs post-transfection. Values represent the average of three experiments in which at least 200 cells were counted and error bars represent the standard error of the mean. […] (C,D) The indicated cell lines were transfected with either YFP (1 μg), YFP-Bax (1 μg) or YFP-Bax (1 μg) and Ku70 (2 μg), and percent apoptosis was determined.
Human embryonic kidney cells (293T) were transfected with a Bax-YFP expression construct and YFP-positive cells were scored 24 hr later for a fragmented nucleus, a well-characterized apoptotic phenotype (Sawada et al., Nat. Cell Biol. 5, 320-329 (2003)).
In revesterol experiments, 293T cells were transfected with 1 μg YFP or 1 μg YFP-Bax and 2 μg Ku70. 12 hours after the transfection the media was supplemented with varying amounts of resveratrol, (0, 50 or 100 nM) and the percentage of YFP positive cells with apoptotic nuclei were scored 24 hours post-transfection.

[4] = test system: Ku70 acetylation; experiment: Ku70 acetylation level in cells (Ku70 IP, panAc-K antibody blot); type: cell-based, human; settings: HeLa cells, NAM 5 mM, TSA 1 μM, normalized to DMSO treatment
Description: Briefly, HeLa cells were grown under one of the following conditions: 0.10/6 DMSO, 1 μM TSA, 5 mM nicotinamide (NAM), or TSA and NAM. Ku70 was immunoprecipitated from whole-cell extracts and probed for lysine acetylation using a panAc-Lys Ab.
To determine which class of deacetylase targets Ku70 in vivo, cells were treated with either TSA or NAM and the acetylation level of Ku70 was detected using the panAc-K antibody.
For immunoprecipitation (IP) of Ku70, 1 mg of protein was precleared by incubation with protein A/G Sepharose beads (Santa Cruz). The supernatant was incubated with agarose-conjugated goat polyclonal anti-Ku70 antibody (Santa Cruz), followed by three washes in 1% triton in PBS. The immunocomplex was separated by SDS-PAGE and proteins were detected with a rabbit polyclonal anti-pan-acetyl-lysine (panAc-K) antibody raised against acetylated rabbit's serum.

Compound | acetylation of peptide by PCAF in vitro [1] | Relative Intensity of Acetylation [1] | acetylation of peptide by CBP in vitro [2] | suppression of Bax-mediated apoptosis ([3]; 293T cells, YFP-Bax and Ku70, resveratrol 0, 50 or 100 nM added 12 hrs after transfection, scored 24 hrs post-transfection) | increase in total acetylation level of Ku70 [4] [fold] | effect on the ability of Ku70 to suppress Bax-mediated apoptosis [3]
VQFKMSHKRIMLFTNED [Peptide 8, Ku70 peptide, amino acids 157-173] | acetylated by PCAF | ++ |  |  |  | 
Oc1ccc(/C=C/c2cc(O)cc(O)c2)cc1 [resveratrol, 3,5,4′-Trihydroxy-trans-stilbene] |  |  |  | dose-dependent suppression of Bax-mediated apoptosis |  | 
ASKAMFESQSEDELT [Peptide 3, Ku70 peptide, amino acids 44-58] | acetylated by PCAF | + |  |  |  | 
CC(/C=C/C(=O)NO)=C\[C@@H](C)C(=O)c1ccc(N(C)C)cc1 [TSA, trichostatin A] |  |  |  |  | 2.4 | apoptosis suppression was completely blocked
KRRR: peptide 29 variant retaining K542, the other three lysines replaced with arginine (TKRRHDNEGSGSRRPRVEYSEE) | acetylated to almost the same extent as the original peptide 29 |  | acetylated to almost the same extent as the original peptide 29 |  |  | 
NC(=O)c1cccnc1 [NAM, nicotinamide] |  |  |  |  | 1.8 | abrogated the ability of Ku70 to suppress apoptosis
LLLPSDTKRSQIY [Peptide 15, Ku70 peptide, amino acids 310-322] | acetylated by PCAF | +++ |  |  |  | 

Continued, in another order:

acetylation of peptide by PCAF in vitro [1] | Relative Intensity of Acetylation [1] | acetylation of peptide by CBP in vitro [2] | Compound | suppression of Bax-mediated apoptosis ([3]; 293T cells, YFP-Bax and Ku70, resveratrol 0, 50 or 100 nM added 12 hrs after transfection, scored 24 hrs post-transfection) | increase in total acetylation level of Ku70 [4] [fold] | effect on the ability of Ku70 to suppress Bax-mediated apoptosis [3]
weakly acetylated |  | weakly acetylated | RRKR: peptide 29 variant retaining K553, the other three lysines replaced with arginine (TRRRHDNEGSGSKRPRVEYSEE) |  |  | 
strongly acetylated | +++ | strongly acetylated | RQIILEKEETEELKRFD [Peptide 16, Ku70 peptide, amino acids 325-341] |  |  | 
strongly acetylated | +++++ | strongly acetylated | TKRKHDNEGSGSKRPKVEYSEE [Peptide 29, Ku70 peptide, amino acids 541-562] |  |  | 
